Results reported in US20100278752A1.

Key:
Assay in all cases: cell-based or functional assay
[1] = biological target: Cathepsin B (Homo sapiens (Human)) (UniProt P07858)
[2] = biological target: Cathepsin X/Z/P (Homo sapiens (Human)) (UniProt Q9UBR2)
[3] = biological target: Cathepsin H (Homo sapiens (Human)) (UniProt P09668)
Chain of Cathepsin H (Homo sapiens (Human)) (P09668 116-335 limits assumed, form in doubt): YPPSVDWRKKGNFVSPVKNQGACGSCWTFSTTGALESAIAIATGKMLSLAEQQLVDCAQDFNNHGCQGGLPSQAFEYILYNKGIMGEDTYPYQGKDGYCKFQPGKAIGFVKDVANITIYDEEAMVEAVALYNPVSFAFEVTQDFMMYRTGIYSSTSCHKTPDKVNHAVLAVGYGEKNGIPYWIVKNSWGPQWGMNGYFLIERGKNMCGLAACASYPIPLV

Chain of Sialostatin L (Q8MVB6 20-133, tags or fused parts left off): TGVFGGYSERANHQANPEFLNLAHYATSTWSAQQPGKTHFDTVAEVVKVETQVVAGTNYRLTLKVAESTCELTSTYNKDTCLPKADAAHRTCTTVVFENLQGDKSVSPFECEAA
Chain of Cathepsin X/Z/P (Homo sapiens (Human)) (Q9UBR2 62-303 limits assumed, form in doubt): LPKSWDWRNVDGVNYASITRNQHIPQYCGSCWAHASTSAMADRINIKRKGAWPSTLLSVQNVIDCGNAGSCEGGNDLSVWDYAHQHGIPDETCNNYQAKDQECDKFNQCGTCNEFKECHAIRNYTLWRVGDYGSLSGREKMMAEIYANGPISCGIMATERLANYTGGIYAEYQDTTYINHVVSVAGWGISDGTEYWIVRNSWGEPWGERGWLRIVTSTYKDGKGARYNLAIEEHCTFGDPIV

Substance | IC50 (inhibitor concentration at which 50% inhibition of enzymatic activity is achieved) [1] [µM] | IC50 (inhibitor concentration at which 50% inhibition of enzymatic activity is achieved); 16 nM enzyme [2] [µM] | IC50 (inhibitor concentration at which 50% inhibition of enzymatic activity is achieved) [3] [µM]
Sialostatin L2 (from UniProt B7PKZ1 19-132) | > 10 | > 10 | > 10
Sialostatin L (from UniProt Q8MVB6 20-133) | > 10 | – | > 10
